Experimental data: patent US20170022281A1 (AbbVie / Abbott, published 2017)

T1: human PRLR ECD-Fc fusion protein (human, UniProt P16471 25-233)
T1 construct: not shown: Fc region (captured by goat anti-human Fc)
T1 sequence: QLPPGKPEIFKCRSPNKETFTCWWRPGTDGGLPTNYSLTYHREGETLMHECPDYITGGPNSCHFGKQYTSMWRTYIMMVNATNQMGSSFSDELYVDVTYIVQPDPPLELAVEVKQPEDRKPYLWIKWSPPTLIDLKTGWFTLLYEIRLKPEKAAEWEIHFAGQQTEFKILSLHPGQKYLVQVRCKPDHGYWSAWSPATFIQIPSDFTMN

T2: mouse PRLR on Baf3-mPRLR cells (mouse, UniProt Q08501 20-608)
T2 sequence (looked up): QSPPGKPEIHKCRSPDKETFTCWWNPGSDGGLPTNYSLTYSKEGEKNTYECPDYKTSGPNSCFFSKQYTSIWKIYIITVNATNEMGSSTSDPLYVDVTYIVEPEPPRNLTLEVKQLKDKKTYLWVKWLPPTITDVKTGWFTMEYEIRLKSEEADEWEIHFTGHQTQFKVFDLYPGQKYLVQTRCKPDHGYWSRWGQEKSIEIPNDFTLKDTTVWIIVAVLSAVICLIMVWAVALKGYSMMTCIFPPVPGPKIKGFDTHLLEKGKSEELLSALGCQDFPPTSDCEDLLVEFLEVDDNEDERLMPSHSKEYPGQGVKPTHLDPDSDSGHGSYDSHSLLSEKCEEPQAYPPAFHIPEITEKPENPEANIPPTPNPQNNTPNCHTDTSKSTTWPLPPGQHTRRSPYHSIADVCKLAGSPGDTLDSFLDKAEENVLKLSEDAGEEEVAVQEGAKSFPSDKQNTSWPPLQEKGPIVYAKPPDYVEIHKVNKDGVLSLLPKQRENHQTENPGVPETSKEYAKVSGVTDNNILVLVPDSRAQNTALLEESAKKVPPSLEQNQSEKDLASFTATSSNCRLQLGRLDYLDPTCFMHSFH

T3: cyno PRLR ECD-his6 protein (cyno)
T3 chain: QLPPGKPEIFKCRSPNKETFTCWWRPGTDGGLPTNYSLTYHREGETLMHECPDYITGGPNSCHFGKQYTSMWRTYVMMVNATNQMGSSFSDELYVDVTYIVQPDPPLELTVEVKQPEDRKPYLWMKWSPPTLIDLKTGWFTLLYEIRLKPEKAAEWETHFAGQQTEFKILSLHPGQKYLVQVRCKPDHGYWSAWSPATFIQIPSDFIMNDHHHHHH

T4: human PRLR (Biacore antigen) (human, UniProt P16471 25-234, limits assumed)
T4 construct: The construct injected over captured antibody is not described (a soluble form is likely); also called huPRLR
T4 sequence: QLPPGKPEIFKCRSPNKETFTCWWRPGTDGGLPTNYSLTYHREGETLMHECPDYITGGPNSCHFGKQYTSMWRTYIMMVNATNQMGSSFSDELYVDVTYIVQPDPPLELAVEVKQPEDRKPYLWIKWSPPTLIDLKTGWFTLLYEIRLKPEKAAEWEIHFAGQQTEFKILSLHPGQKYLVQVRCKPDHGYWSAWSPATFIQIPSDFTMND


How the values were obtained:
[1] = target: T1, human PRLR ECD-Fc fusion protein; assay: ELISA on ECD
Method in brief: (§1)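 PRLR was captured on blocked plates for 1 h, then incubated 1 h with serial antibody dilutions in PBS pH 7.4/0.05% Tween 20 containing 10% Superblock. HRP secondary and TMB gave signal read at 450 nm, and EC50 came from curve fitting.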

[2] = target: T2, mouse PRLR on Baf3-mPRLR cells; assay: cell-based or functional assay
[3] = target: T3, cyno PRLR ECD-his6 protein; assay: ELISA on ECD
Method in brief: as §1

[4] = target: T4, human PRLR (Biacore antigen); assay: SPR simultaneous binding; PRLR held by surface mAb Ab48
Method: (§2) Running buffer was HBS-EP+ (10 mM Hepes, pH7.4, 150 mM NaCl, 3 mM EDTA, 0.05% surfactant). Assay was performed at 12° C. using Biacore T200 and CM5 sensor chips with anti-human IgG (Pierce) amine-coupled in all 4 flow cells to ˜2000 RU.
(§3) Separate test mAbs were captured in flowcells 2, 3 & 4 (flowcell 1 was reference, no test mAb). All 4 flowcells were then blocked by injection with isotype control mAb at 50 ug/ml. All 4 flowcells were then injected with antigen or buffer only (buffer only is for double referencing, done for each mAb pair individually). All 4 flowcells were then injected with 2nd test mAb at 10 ug/ml. All 4 flowcells were then regenerated with glycine, pH1.5.

[5] = target: T4, human PRLR (Biacore antigen); assay: SPR simultaneous binding; PRLR held by surface mAb chAb8
Method: as §2, §3

[6] = target: T4, human PRLR (Biacore antigen); assay: SPR simultaneous binding; PRLR held by surface mAb chAb6
Method: as §2, §3

[7] = target: T4, human PRLR (Biacore antigen); assay: SPR simultaneous binding; PRLR held by surface mAb Ab40
Method: as §2, §3

[8] = target: T4, human PRLR (Biacore antigen); assay: SPR simultaneous binding; PRLR held by surface mAb Ab39
Method: as §2, §3

[9] = target: T4, human PRLR (Biacore antigen); assay: SPR simultaneous binding; PRLR held by surface mAb chAb5
Method: as §2, §3

[10] = target: T4, human PRLR (Biacore antigen); assay: SPR simultaneous binding; PRLR held by surface mAb Ab49
Method: as §2, §3

[11] = target: T4, human PRLR (Biacore antigen); assay: SPR simultaneous binding; PRLR held by surface mAb chAb7
Method: as §2, §3

[12] = target: T4, human PRLR (Biacore antigen); assay: SPR simultaneous binding; PRLR held by surface mAb Ab21
Method: as §2, §3

Binder	EC50 [1] [nM]	Baf3-mPRLR proliferation IC50 [2] [mg/L]	EC50 [3] [nM]	solution mAb binding, % of PRLR binding [4] [%]	solution mAb binding, % of PRLR binding [5] [%]	solution mAb binding, % of PRLR binding [6] [%]	solution mAb binding, % of PRLR binding [7] [%]	solution mAb binding, % of PRLR binding [8] [%]	solution mAb binding, % of PRLR binding [9] [%]	solution mAb binding, % of PRLR binding [10] [%]	solution mAb binding, % of PRLR binding [11] [%]	solution mAb binding, % of PRLR binding [12] [%]
Ab10 (antibody, V domains shown, murine monoclonal, isotype G2a; also called murine Ab10) VH: EVQLHQSGPELVKPGASVKISCKASGYTFTDYNMHWMKQSHGKSLEWIGYFYPYNGGTGYNQEFKNKATLTVDISSSTAYMELRRLTSEDSAVYYCARGGWGIYYAMDYWGQGTSVTVSS VL: DIQMTQSPASLSASVGETVTITCRASENIYSYLTWYQQKQGKSPQLLVYNAKTLAEGVPSRFSGSGSGTQFSLKINSLQPEDFGSYHCQHHSVTPLTFGAGTKLELK	0.147	> 30										
Ab12 (antibody, V domains shown, murine monoclonal, isotype G2a; reported as PRLR agonist; also called murine Ab12) VH: DVQLQESGPGLVKPSQSLSLTCTVTGYSITSDYAWNWIRQFPGNKLEWMGYIGYSGRTSFNPSLKSRISITRDTSKNQFFLQLNSVTTEDTATYYCARGGFAMDYWGQGTSVTVSS VL: QIVLTQSPGIMSASPGEKVTMTCSASSSVTYMYWYQQKPRSSPKPWIYLTSNLASGVPARFSGSGSGTSYSLTISSMEAEDGATYYCQQWSSTPPLTFGGGTKLELN	0.069	> 30	< 4									
Ab5 (antibody, V domains shown, murine monoclonal, isotype G2a; also called murine Ab5) VH: QVQLQQPGAELVRPGTSVKLSCKASGYTFTSFWMHWVKQRPGQGLEWIGVIDPSDTYTNYNQKFKGKATLTVDTSSSTAYMQLSSLTSEDSAVYYCARGDYSNWFTYWGQGTLVTVSA VL: DVVMTQTPLSLPVSLGDQASISCRSSQRLVHSNGNTYLHWYLQKPGQSPKLLIYKVSNRFSGVPDRFSGSGSGTDFTLKISRVEAEDLGVYFCSQSTHVPWTFGGGTKLEIK	0.071	1.03	0.095									
Ab7 (antibody, V domains shown, murine monoclonal, isotype G1; also called murine Ab7) VH: QVQLQQPGAELVMPGTSVKLSCKASGYTFTSYWIHWVKQRPGQGLEWIGEIDPSDSYTNYNQKFKGKATLTVDRSSSTAYMQLSSLTSEDSAVYYCGRSFFTNWFAYWGQGTLVTVSA VL: DVVMTQTPLSLPVSLGDQASISCRSSQSLVHSNGNTYLHWYLQKPGQSPKLLIYKVSNRFSGVPDRFSGSGSGTDFTLKINRVEAEDLGVYFCSQSTHVPFTFGSGTKLEIK	0.098	3.55	0.202									
Ab11 (antibody, V domains shown, murine monoclonal, isotype G1; also called murine Ab11) VH: EVKLVESGGGLVQPGGSLKLSCAASGFTFSDYYMFWVRQTPEKSLEWVAYISNGGGSTYYPDTVKGRFTISRDNAKNTLYLQMSRLKSEDTAMYYCSRQLFYYGSRGAMGYWGQGTSVTVSS VL: DVLMTQTPLSLPVSLGDQASISCRSSQSIVHSNGNTYLEWYLQKPGQSPKLLIYKVSNRFSGVPDRFSGSGSGTDFTLKISRVEAEDLGVYYCFQGSHVPFTFGSGTKLEIK	0.093	18.5	0.153									
Ab13 (antibody, V domains shown, murine monoclonal, isotype G2a; also called murine Ab13) VH: QVQLQQPGAELVRPGTSVKLSCKASGYTFTSFWMHWVKQRPGQGLEWIGVIDPSDSHTNYNQKFKGKATLTVNTSSSTAYMHLSSLTSEDSAVYYCARGDYSNWFTYWGQGTLVTVSA VL: DVVMTQTPFSLPVSLGDQASISCRSSQSLVHSNGNTYLHWYLQKPGQSPKLLIYKVSNRFSGVPDRFSGSGSGTDFTLKISRVEAEDLELYFCSQSTHVPWTFGGGTKLEIK	0.07	4.69	0.143									
Ab6 (antibody, V domains shown, murine monoclonal, isotype G1; also called murine Ab6) VH: QVQLQQPGAELVMPGSSVKLSCKASGYTFTTYWMHWVKQRPGQGLEWIGEIDPSDSYSNYNQKFKDKATLTVDKSSSTAYMQLSSLTSEDSAVYYCARNGGLGPAWFSYWGQGTLVTVSA VL: DIVMTQSQKFMSTTVGDRVSITCKASQYVGTAVAWYQQKPGQSPKLLIYSASNRYTGVPDRFTDSGSGTDFTLTISNLQSEDLADYFCQQYSSYPWTFGGGTKLEIK	0.086	> 30										
chAb6 (antibody, human IgG1, kappa, V domains shown, chimeric, murine variable and human G1/kappa constant regions) VH: QVQLQQPGAELVMPGSSVKLSCKASGYTFTTYWMHWVKQRPGQGLEWIGEIDPSDSYSNYNQKFKDKATLTVDKSSSTAYMQLSSLTSEDSAVYYCARNGGLGPAWFSYWGQGTLVTVSA VL: DIVMTQSQKFMSTTVGDRVSITCKASQYVGTAVAWYQQKPGQSPKLLIYSASNRYTGVPDRFTDSGSGTDFTLTISNLQSEDLADYFCQQYSSYPWTFGGGTKLEIKT	0.103		0.072	0	0	-1	-2	-2	0	0	1	-1
Ab30 (antibody, human IgG1, kappa, V domains shown, humanized from Ab5; G1; also called Ab2 HC.1a and Ab2 LC.1a) VH: EVQLVQSGAEVKKPGSSVKVSCKASGYTFTSFWMHWVRQAPGQGLEWIGVIDPSDTYTNYNQKFKGRATLTVDESSSTAYMELSSLRSEDTAVYYCARGDYSNWFTYWGQGTLVTVSS VL: DVVMTQTPLSLSVTPGQPASISCRSSQRLVHSNGNTYLHWYLQKPGQSPQLLIYKVSNRFSGVPDRFSGSGSGTDFTLKISRVEAEDVGVYFCSQSTHVPWTFGGGTKVEIKR	0.221		0.1	6	6	-1	-2	-2	0	6	0	-1
